Data: paper PMC4484809

Experiments:
[1] = biological target: Xpo1 (full-length, 1–1071) (S. cerevisiae) (UniProt P30822)
[2] = biological target: Xpo1 (full-length, 1–1071) (S. cerevisiae) (UniProt P30822); remark: listed apart in the source
[3] = biological target: Xpo1 (full-length, 1–1071) (S. cerevisiae) (UniProt P30822); remark: listed apart in the source

RNA duplex unwinding (helicase) by Ded1 (50 nM) with Xpo1 (550 nM) and Ran[GTP]Q71L (650 nM); fold inhibition of k unwind [1] [fold]	RNA-stimulated ATPase activity of Ded1 (500 nM, 320 μg/mL whole-cell yeast RNA) with Xpo1 0.55–11 μM and Ran[GTP]Q71L 0.65–13 μM added together; fold reduction [2] [fold]	Michaelis-Menten analysis of Ded1 ATPase (500 nM) against whole cell yeast RNA, with ~10 fold molar excess of Xpo1 and Ran[GTP]Q71L; fold change of the apparent KM for RNA [3] [fold]	RNA duplex unwinding (helicase) by Ded1 I13A (50 nM) with Xpo1 (550 nM) and Ran[GTP]Q71L (650 nM); fold inhibition of k unwind [1] [fold]	Substance
5	2	50		Ded1 (full-length, 1–604) (from UniProt P06634 1-604) (natural protein)
			< 2	Ded1_(I13A) (full-length Ded1, I13A) (from UniProt P06634 1-604) (natural protein)
